The text below walks through data of publication PMC2661965.

What all share (experiment): BiFC
The target in one experiment is V2-Trap-80 (UniProt Q8VCD5). The conditions noted are these: HEK-293 cells, co-transfection; parent: est. 72; read off a plot.
The target in a further experiment is p65-V2 (UniProt Q04207). The following applies: HEK-293 cells, co-transfection; parent: est. 740; read off a plot.
Another experiment deals with T1, V2-Trap-80, Q8VCD5.
T1 chain: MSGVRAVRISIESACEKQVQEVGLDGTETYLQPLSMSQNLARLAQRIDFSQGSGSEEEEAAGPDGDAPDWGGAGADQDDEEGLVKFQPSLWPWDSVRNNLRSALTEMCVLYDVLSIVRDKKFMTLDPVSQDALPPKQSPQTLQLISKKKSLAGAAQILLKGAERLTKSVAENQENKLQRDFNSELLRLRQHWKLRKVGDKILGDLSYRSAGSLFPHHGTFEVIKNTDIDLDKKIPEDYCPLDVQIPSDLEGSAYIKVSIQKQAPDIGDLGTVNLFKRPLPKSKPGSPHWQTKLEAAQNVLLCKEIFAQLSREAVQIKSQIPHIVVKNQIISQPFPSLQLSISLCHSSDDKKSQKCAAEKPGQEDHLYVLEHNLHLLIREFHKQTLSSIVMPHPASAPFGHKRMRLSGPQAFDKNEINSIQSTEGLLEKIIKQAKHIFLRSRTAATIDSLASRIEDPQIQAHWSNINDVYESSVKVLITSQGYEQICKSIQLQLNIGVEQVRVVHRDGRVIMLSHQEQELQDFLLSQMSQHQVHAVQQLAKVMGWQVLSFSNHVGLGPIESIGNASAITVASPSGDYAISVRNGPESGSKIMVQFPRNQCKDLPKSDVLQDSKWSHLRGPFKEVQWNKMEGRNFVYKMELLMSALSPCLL
The following applies: chain shown with the change; HEK-293 cells, co-transfection; parent: est. 72; read off a plot.

Another experiment has as its target T2, p65-V2, Q04207.
T2 chain: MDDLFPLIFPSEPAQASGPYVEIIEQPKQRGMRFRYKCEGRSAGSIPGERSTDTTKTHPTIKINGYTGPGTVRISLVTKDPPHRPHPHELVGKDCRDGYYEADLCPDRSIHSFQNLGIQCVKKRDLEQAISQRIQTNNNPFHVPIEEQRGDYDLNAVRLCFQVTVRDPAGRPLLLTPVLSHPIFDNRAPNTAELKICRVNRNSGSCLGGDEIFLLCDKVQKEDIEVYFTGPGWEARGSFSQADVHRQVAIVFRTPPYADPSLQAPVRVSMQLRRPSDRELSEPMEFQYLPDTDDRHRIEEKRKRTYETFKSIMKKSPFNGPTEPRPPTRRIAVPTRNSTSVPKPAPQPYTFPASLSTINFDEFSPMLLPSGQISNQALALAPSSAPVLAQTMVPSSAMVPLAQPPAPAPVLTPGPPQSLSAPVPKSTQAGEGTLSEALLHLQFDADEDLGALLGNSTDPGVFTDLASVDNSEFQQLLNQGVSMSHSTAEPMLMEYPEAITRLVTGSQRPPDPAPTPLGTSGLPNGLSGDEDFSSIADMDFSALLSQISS
The following applies: chain shown with the change; HEK-293 cells, co-transfection; parent: est. 740; read off a plot.

With “p65ΔTA2 fused to Venus fragment 1 (from UniProt Q04207) TA1 mut535-541”, the response with V2-Trap-80 came out at 38 % wt p65; with p65-V2, 640 % wt p65.

Consider “p65ΔTA2 fused to Venus fragment 1 (from UniProt Q04207) TA1 mut528-534”, for which the response is 40 % wt p65 in the experiment with V2-Trap-80 and 550 % wt p65 with p65-V2.

B1: p65ΔTA2 fused to Venus fragment 1, Q04207 D539A; F540A (protein)
chain: MDDLFPLIFPSEPAQASGPYVEIIEQPKQRGMRFRYKCEGRSAGSIPGERSTDTTKTHPTIKINGYTGPGTVRISLVTKDPPHRPHPHELVGKDCRDGYYEADLCPDRSIHSFQNLGIQCVKKRDLEQAISQRIQTNNNPFHVPIEEQRGDYDLNAVRLCFQVTVRDPAGRPLLLTPVLSHPIFDNRAPNTAELKICRVNRNSGSCLGGDEIFLLCDKVQKEDIEVYFTGPGWEARGSFSQADVHRQVAIVFRTPPYADPSLQAPVRVSMQLRRPSDRELSEPMEFQYLPDTDDRHRIEEKRKRTYETFKSIMKKSPFNGPTEPRPPTRRIAVPTRNSTSVPKPAPQPYTFPASLSTINFDEFSPMLLPSGQISNQALALAPSSAPVLAQTMVPSSAMVPLAQPPAPAPVLTPGPPQSLSAPVPKSTQAGEGTLSEALLHQLLNQGVSMSHSTAEPMLMEYPEAITRLVTGSQRPPDPAPTPLGTSGLPNGLSGDEDFSSIADMAASALLSQISS
B1: the response turned out to be 35 % wt p65 in the experiment with V2-Trap-80, Q8VCD5 and 600 % wt p65 with p65-V2, Q04207.
